Experimental findings from the supplement of paper PMC12042874 are described below.

± gives the uncertainty stated by the source.

The nature of this data set: amyloid nucleation score (Sup35N fusion, yeast selection) (log enrichment); library NNK2; higher = more nucleation; inactive = no reads after selection. The gist of the method: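 Plasmid inserts were Illumina-sequenced at input and output from psi-negative yeast expressing Sup35N fused to peptides of 20 random codons. The yeast were induced with 100 μM copper sulfate for 24 hours and grown 7 days at 30°C on medium lacking adenine and uracil, and sequences with under 100 input reads were excluded. Nucleation score is the DiMSum log enrichment of output over input reads, centred on the mode score of non-aggregating sequences.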
EPFSNEWWLMGVRPHLICRV came in with an amyloid nucleation score of 0 ± 0.37.

EPMKSFSHNCLTQIST: the amyloid nucleation score was -0.557 ± 1.1.

With ERSVDYSLTL, the amyloid nucleation score was -0.43 ± 0.45.

Substance ERVNKFLWGGFSERLRLMSQ returned an amyloid nucleation score of 0.51 ± 0.65.

On to ERYIRF, for which the amyloid nucleation score was 0.187 ± 0.32.

ESFAFELTVLHIS returned an amyloid nucleation score of 1.11 ± 0.38.

ESGCRHYLCLGATTIVMDS: the amyloid nucleation score turned out to be 6.619 ± 0.049.

Regarding ESGFGMSSNWKPERNFW, the amyloid nucleation score result was “inactive”.

For the substance ESGVHWENTEVKGIYSYLCR, the amyloid nucleation score result is “inactive”.

ESISTVITLRGLMLITTGYN: the amyloid nucleation score is 4.12 ± 0.097.

For ESLKINASSEQSRLVTRDTQ, the amyloid nucleation score is -0.191 ± 0.61.

For ESYLFAWDNGMFYIANDLEF, the amyloid nucleation score was 0.494 ± 0.8.

Substance ETFNCNFVWL returned an amyloid nucleation score of 4.83 ± 0.1.

The substance ETLSQIMFYVKIIAYDCRNP registered an amyloid nucleation score of 2.66 ± 0.13.

In the case of ETPIIRDQYKLGYNLRTSVL, the amyloid nucleation score entry is “inactive”.

Substance ETRGNRPF yielded an amyloid nucleation score of 0.88 ± 0.33.

With ETSFSTVRRQILSLLRLVSS, the amyloid nucleation score was found to be 0.326 ± 0.33.

As for ETVDSESFSGCGIVFLRGSN, the amyloid nucleation score was -0.908 ± 0.78.

As to EVDVIS, the amyloid nucleation score was -0.885 ± 0.64.

As to EVGILVTVVYSGKWKVSRCM, the amyloid nucleation score came out at 1.87 ± 0.48.

EVSTWQLPMNTDTVEGGSVV returned an amyloid nucleation score of 1.16 ± 0.25.

As for EVWRWIFNHGLPRHAGHIVA, the amyloid nucleation score came to 0.312 ± 0.43.

EVWYSPDLTLLVYPTPR gave an amyloid nucleation score of 1.46 ± 0.4.

As for EVYYTSMERCGG, the amyloid nucleation score was 1.36 ± 0.22.

For the substance EWDVLGLRGRANN, the amyloid nucleation score was 1.36 ± 0.35.

In the case of EWNAKLWSLPSGATGCKSQS, the amyloid nucleation score is 1.16 ± 0.2.

The substance EYIYLNLYISDNLYSSGKSG registered an amyloid nucleation score of 2.88 ± 0.16.

EYLTNVMVRGDYFGWDHAIA returned an amyloid nucleation score of -0.949 ± 0.63.

For the substance EYMPP, the amyloid nucleation score is 0.924 ± 0.16.

EYTHRSERFIMGNVISKVRM: the amyloid nucleation score is 0.255 ± 0.49.

EYYLSVYSYYCYCLTCMFVI had an amyloid nucleation score of 3.46 ± 0.15.

As for FACIGGVLHAGGGVGAIGA, the amyloid nucleation score worked out at 0.69 ± 0.42.

FAFVYSNHFGQMCYRNVCLS: the amyloid nucleation score entry is “inactive”.

FAQPHGCNKMCFCSLRFQYL showed an amyloid nucleation score of 3.21 ± 0.12.

On to FASLFPKAPERTEVSEPYRR, for which the amyloid nucleation score is -0.76 ± 0.5.

In turn, FASRLNWVEIHTMYGGLS yielded an amyloid nucleation score of 0.209 ± 0.32.

For the substance FATKRERNVWFMSIEWFVRG, the amyloid nucleation score is -0.707 ± 0.44.

In turn, FCALPWGFFGYMGNLNLYSD registered an amyloid nucleation score of 2.62 ± 0.083.

FCCARILVNVSCVGATCGMC yielded an amyloid nucleation score of 8.258 ± 0.043.

For the substance FCFSLCWDIFNVLSVFGYNF, the amyloid nucleation score is -0.793 ± 1.

As for FCGISSR, the amyloid nucleation score is -0.411 ± 0.56.

Take FCGYSAVVSRAGGCTNLSDE: the amyloid nucleation score entry was “inactive”.

With FCHRRRYIFIWNIRCLSYLN, the amyloid nucleation score entry is “inactive”.

In the case of FCKHFYVLREHIKWADSFLM, the amyloid nucleation score entry is “inactive”.

Take FCKRKVTCVVY: the amyloid nucleation score is -0.538 ± 0.45.

In turn, FCLALWWHYKFVLWFRNN came in with an amyloid nucleation score of -0.836 ± 0.37.

Consider FCLFQRDKTHSVWMGLKKFQ, for which the amyloid nucleation score was -1.06 ± 0.78.

With FCLVEVWRIYVVCWPWSVGR, the amyloid nucleation score came out at 0.743 ± 0.47.

FCLYFSKNF yielded an amyloid nucleation score of 3.63 ± 0.13.

With FCPLLPVRFHV, the amyloid nucleation score was -0.533 ± 0.61.

Substance FCPVFST displayed an amyloid nucleation score of -0.127 ± 1.

In turn, FCTHSQARDQVNSNHTMALL registered an amyloid nucleation score of 2.84 ± 0.064.

In the case of FCWLCFIRSEV, the amyloid nucleation score was found to be 0.554 ± 0.81.

In the case of FCWSCWLFQDCSYVVIGREV, the amyloid nucleation score came to 8.556 ± 0.048.

Turning to FDDEMVRCIFNYRLSGYRPL, the amyloid nucleation score is 1.47 ± 0.22.

FDFRNGCGNTKVEFSMHRSG showed an amyloid nucleation score of 2.86 ± 0.21.

Turning to FDGLHVYQCWTPVNIARVEE, the amyloid nucleation score was 0.099 ± 0.62.

The substance FDMLVNGHVIYRNRKSSSYI registered an amyloid nucleation score of 0.216 ± 0.62.

FDQLPRVFNYRLAILWAVYR came in with an amyloid nucleation score of -0.627 ± 0.79.

Substance FDSFPSS displayed an amyloid nucleation score of 0.529 ± 0.2.

As to FDSLAKLFSRIVLLLLLNDR, the amyloid nucleation score was -0.032 ± 1.1.

FDSSSESLGKGKCY yielded an amyloid nucleation score of 0.225 ± 0.49.

The substance FDTLKLCSMWDLCCHITRVA returned an amyloid nucleation score of 5.904 ± 0.044.

Substance FEAVDWFKL returned an amyloid nucleation score of -0.603 ± 0.74.

Substance FECVAFSAV registered an amyloid nucleation score of -0.272 ± 0.28.

FEGCCWVVGLLRLSG came in with an amyloid nucleation score of 8.713 ± 0.077.

For the substance FEVDVA, the amyloid nucleation score result is “inactive”.

FEWWTSMGGGECVQRNNSVA: the amyloid nucleation score was 0.697 ± 0.41.

Regarding FFDNPMHKTYSGSAARARLS, the amyloid nucleation score was -0.375 ± 0.24.

As for FFGVSWRWARNFCYDMGQVY, the amyloid nucleation score is -0.177 ± 1.

Regarding FFISALANR, the amyloid nucleation score result was “inactive”.

Substance FFLDYRENISAMLPTTR returned an amyloid nucleation score of -0.833 ± 1.1.

The substance FFLGANGINALQNRSYIQPG gave an amyloid nucleation score of 0.007 ± 0.79.

As for FFLGDRIWL, the amyloid nucleation score entry was “inactive”.

Take FFLWVGTYSVVPGLCVYMS: the amyloid nucleation score was 3.78 ± 0.11.

For FFLYFVFCF, the amyloid nucleation score turned out to be 2.67 ± 0.085.

Turning to FFNLNQLMFKELSMRLGHRY, the amyloid nucleation score came to 0.066 ± 0.74.

FFRCVLITPD gave an amyloid nucleation score of 0.179 ± 0.53.

For the substance FFRVQINEGDQGYQSQYF, the amyloid nucleation score result was “inactive”.

On to FFSVPGAWCDKWALALANY, for which the amyloid nucleation score was -0.564 ± 0.38.

In turn, FFTANPV showed an amyloid nucleation score of 0.335 ± 0.64.

The substance FFTVDRDFLYFPDFSKRVVM registered an amyloid nucleation score of -0.569 ± 0.79.

FFVSGLFANF: the amyloid nucleation score came out at 1.73 ± 0.2.

The substance FGFFTTYSELAVQVIQSAVT showed an amyloid nucleation score of -0.032 ± 1.1.

Regarding FGIFEQMMFLHNVCSDFTAS, the amyloid nucleation score is -0.447 ± 1.1.

FGIMNMKYGYTCMMSSSKSS yielded an amyloid nucleation score of -1.43 ± 1.1.

In turn, FGKCYYLFVSYHYMLGLACT showed an amyloid nucleation score of -0.549 ± 1.

The substance FGLTACH gave an amyloid nucleation score of -0.579 ± 0.54.

On to FGSAFTNGSVRNYVDGVQVI, for which the amyloid nucleation score came to 0.648 ± 0.74.

FGTILGSLVLVIWI: the amyloid nucleation score entry is “inactive”.

For the substance FGWGINRVYLVNM, the amyloid nucleation score was determined as 5.04 ± 0.088.

Consider FHFKLRGWPGRGVTSMGS, for which the amyloid nucleation score is -0.873 ± 0.62.

Consider FHLFSVGTEGTPRRRKFAGD, for which the amyloid nucleation score was -0.481 ± 0.78.

On to FHPVFGMFWRTSNERSGLFQ, for which the amyloid nucleation score was -1.03 ± 0.48.

In turn, FHRRMFLCAVWLLRLTIVRQ showed an amyloid nucleation score of 0.492 ± 0.39.

With FHSLRQLFMNTGVL, the amyloid nucleation score entry was “inactive”.

FIAFVYNL came in with an amyloid nucleation score of 1.95 ± 0.091.

On to FIDRMKMLWGLKSWDFQCHW, for which the amyloid nucleation score came to 0.362 ± 0.45.

Turning to FIFDR, the amyloid nucleation score is -0.257 ± 0.54.

On to FIINKHSFQRGLFMVSLVSI, for which the amyloid nucleation score result was “inactive”.

Consider FIKMAITDRCGMAYS, for which the amyloid nucleation score was -0.752 ± 0.53.

The substance FILGSESNLRVSMRLFGSNW came in with an amyloid nucleation score of 5.019 ± 0.03.

Substance FIWTYSYRDVWVLRVAVWLQ showed an amyloid nucleation score of 0.283 ± 0.23.

With FKAYHSGKWTYGHITQRGRI, the amyloid nucleation score result was “inactive”.

FKCPFSNFFAMDGYY showed an amyloid nucleation score of -0.801 ± 0.55.

The substance FKHLLSMVIVECFIVIVILC showed an amyloid nucleation score of -0.041 ± 0.5.

In turn, FKQYFSYLVGLYRS had an amyloid nucleation score of 0.472 ± 0.8.

In the case of FKSIDISAFSSSSHTGSYLG, the amyloid nucleation score is 0.578 ± 0.81.

Substance FKSQIDSECMFYLLG had an amyloid nucleation score of -0.018 ± 0.17.

FLCMFMFESWYDHNAVAVSY came in with an amyloid nucleation score of 0.66 ± 0.57.

FLCRLLGSGRSHHIRVC displayed an amyloid nucleation score of 0.15 ± 0.22.

On to FLDMSSRIMRARRPNCFFWC, for which the amyloid nucleation score was -0.022 ± 0.31.

FLFLCGTDTFASRNPGRGKG had an amyloid nucleation score of 0.269 ± 0.51.

The substance FLFLTTVSPRWTYRCTRFLG yielded an amyloid nucleation score of 4.64 ± 0.055.

With FLGDWKTCKVTGACKLCYGG, the amyloid nucleation score was -0.018 ± 0.42.

Substance FLHVSRDLPYYYCFLV came in with an amyloid nucleation score of -0.703 ± 0.74.

For the substance FLIEFLWSMSACSAPVFLVF, the amyloid nucleation score is -1.41 ± 1.1.

With FLIFTTLLYCMVDMHAGTTF, the amyloid nucleation score was -1.77 ± 0.78.

As for FLIINYRSCRGINFIYARFY, the amyloid nucleation score entry was “inactive”.

Turning to FLILAHLGIKNYNWV, the amyloid nucleation score was 3.885 ± 0.037.

For FLITCQLESTLYQW, the amyloid nucleation score is -0.334 ± 0.64.

For the substance FLMACPMFIIVYLCRT, the amyloid nucleation score result was “inactive”.

FLNYVGDGIIEI showed an amyloid nucleation score of -0.835 ± 0.48.

As to FLPNFSNVLFSLHPASKSGE, the amyloid nucleation score was -0.218 ± 0.48.

Consider FLPYFNPEVSGIFCVNRMST, for which the amyloid nucleation score is -0.971 ± 0.53.

FLQNWKLYRCCLRVASVGGR returned an amyloid nucleation score of 4.67 ± 0.11.

Regarding FLRFLVCLG, the amyloid nucleation score is -0.22 ± 1.1.

As for FLSGVFIMRFHLNY, the amyloid nucleation score result was “inactive”.

FLSRWSFPHGEFLLIRTLAG returned an amyloid nucleation score of -0.574 ± 0.3.

FLSSYVFLCWCSLVSWGGTW gave an amyloid nucleation score of 1.03 ± 0.66.

Consider FLSYYFGPFRELVF, for which the amyloid nucleation score was -0.287 ± 0.56.

Regarding FLTNGESGTMGI, the amyloid nucleation score entry is “inactive”.

The substance FLVLVTFKFRAQTDFLSSWN displayed an amyloid nucleation score of -0.884 ± 0.78.

Substance FLVYWTMLVVYGYCVFGWIN yielded an amyloid nucleation score of -1.3 ± 0.78.

As to FMDIHRKMGTHVFLRKCFRI, the amyloid nucleation score was -0.771 ± 1.1.

In the case of FMFPILDSVTPIFDIVITGD, the amyloid nucleation score result was “inactive”.

The substance FMGTLNRELYTGRYGVG had an amyloid nucleation score of -0.243 ± 1.

In the case of FMMHRVSTRFASKNAS, the amyloid nucleation score was -0.072 ± 1.1.

As to FMQICNFIC, the amyloid nucleation score is 8.012 ± 0.07.
